No end group written: not given here.
Target: T1, His-tagged P3028 (human, also: His-tag, terminus and sequence not given here)
T1 construct: used in solution in the PEPSCAN (rampo) ELISA; also called PGE73; His-tag-P3028; not shown: His tag
T1 peptide: VFDEFKPLVEEPQNLIK
Assay: PEPSCAN ELISA (rampo)

Row | Binder | rampo score relative to the P28R control sample | RAMPO Score
1 | KKVDTFFVKLSLFTER [SEQ ID NO 297] | ≥ 98 % of P28R control | –
2 | KKLATFFVKLSLFTER [SEQ ID NO 298] | ≥ 98 % of P28R control | –
3 | KKLETFFVKLSLFTER [SEQ ID NO 299] | ≥ 98 % of P28R control | –
4 | KKLITFFVKLSLFTER [SEQ ID NO 300] | ≥ 98 % of P28R control | –
5 | KKLVTFFVKLSLFTER [SEQ ID NO 301] | ≥ 98 % of P28R control | –
6 | KKLWTFFVKLSLFTER [SEQ ID NO 302] | ≥ 98 % of P28R control | –
7 | KKLYTFFVKLSLFTER [SEQ ID NO 303] | ≥ 98 % of P28R control | –
8 | KKLDCFFVKLSLFTER [SEQ ID NO 304] | ≥ 98 % of P28R control | –
9 | KKLDMFFVKLSLFTER [SEQ ID NO 305] | ≥ 98 % of P28R control | –
10 | KKLDNFFVKLSLFTER [SEQ ID NO 306] | ≥ 98 % of P28R control | –
11 | KKLDPFFVKLSLFTER [SEQ ID NO 307] | ≥ 98 % of P28R control | –
12 | KKLDQFFVKLSLFTER [SEQ ID NO 308] | ≥ 98 % of P28R control | –
13 | KKLDRFFVKLSLFTER [SEQ ID NO 309] | ≥ 98 % of P28R control | –
14 | KKLDSFFVKLSLFTER [SEQ ID NO 310] | ≥ 98 % of P28R control | –
15 | KKLDWFFVKLSLFTER [SEQ ID NO 311] | ≥ 98 % of P28R control | –
16 | KKLDYFFVKLSLFTER [SEQ ID NO 312] | ≥ 98 % of P28R control | –
17 | KKLDTAFVKLSLFTER [SEQ ID NO 313] | ≥ 98 % of P28R control | –
18 | KKLDTIFVKLSLFTER [SEQ ID NO 314] | ≥ 98 % of P28R control | –
19 | KKLDTMFVKLSLFTER [SEQ ID NO 315] | ≥ 98 % of P28R control | –
20 | KKLDTNFVKLSLFTER [SEQ ID NO 316] | ≥ 98 % of P28R control | –
21 | KKLDTPFVKLSLFTER [SEQ ID NO 317] | ≥ 98 % of P28R control | –
22 | KKLDTTFVKLSLFTER [SEQ ID NO 318] | ≥ 98 % of P28R control | –

Row | Binder | rampo score relative to the P28R control sample | RAMPO Score
23 | KKLDTVFVKLSLFTER [SEQ ID NO 319] | ≥ 98 % of P28R control | –
24 | KKLDTFLVKLSLFTER [SEQ ID NO 320] | ≥ 98 % of P28R control | –
25 | KKLDTFMVKLSLFTER [SEQ ID NO 321] | ≥ 98 % of P28R control | –
26 | KKLDTFQVKLSLFTER [SEQ ID NO 322] | ≥ 98 % of P28R control | –
27 | KKLDTFSVKLSLFTER [SEQ ID NO 323] | ≥ 98 % of P28R control | –
28 | KKLDTFTVKLSLFTER [SEQ ID NO 324] | ≥ 98 % of P28R control | –
29 | KKLDTFVVKLSLFTER [SEQ ID NO 325] | ≥ 98 % of P28R control | –
30 | KKLDTFFFKLSLFTER (also called P28R with F at position 8) [SEQ ID NO 326] | ≥ 98 % of P28R control | ≥ 302 rampo units
31 | KKLDTFFGKLSLFTER (also called P28R with G at position 8) [SEQ ID NO 327] | ≥ 98 % of P28R control | ≥ 302 rampo units
32 | KKLDTFFLKLSLFTER (also called P28R with L at position 8) [SEQ ID NO 328] | ≥ 98 % of P28R control | ≥ 302 rampo units
33 | KKLDTFFPKLSLFTER (also called P28R with P at position 8) [SEQ ID NO 329] | ≥ 98 % of P28R control | ≥ 302 rampo units
34 | KKLDTFFRKLSLFTER (also called P28R with R at position 8) [SEQ ID NO 330] | ≥ 98 % of P28R control | ≥ 302 rampo units
35 | KKLDTFFVRLSLFTER [SEQ ID NO 331] | ≥ 98 % of P28R control | –
36 | KKLDTFFVKASLFTER [SEQ ID NO 332] | ≥ 98 % of P28R control | –
37 | KKLDTFFVKFSLFTER [SEQ ID NO 333] | ≥ 98 % of P28R control | –
38 | KKLDTFFVKGSLFTER [SEQ ID NO 334] | ≥ 98 % of P28R control | –
39 | KKLDTFFVKISLFTER [SEQ ID NO 335] | ≥ 98 % of P28R control | –
40 | KKLDTFFVKMSLFTER [SEQ ID NO 336] | ≥ 98 % of P28R control | –
41 | KKLDTFFVKNSLFTER [SEQ ID NO 337] | ≥ 98 % of P28R control | –
42 | KKLDTFFVKPSLFTER [SEQ ID NO 338] | ≥ 98 % of P28R control | –
43 | KKLDTFFVKQSLFTER [SEQ ID NO 339] | ≥ 98 % of P28R control | –
44 | KKLDTFFVKRSLFTER [SEQ ID NO 340] | ≥ 98 % of P28R control | –

Row | Binder | rampo score relative to the P28R control sample | RAMPO Score
45 | KKLDTFFVKSSLFTER [SEQ ID NO 341] | ≥ 98 % of P28R control | –
46 | KKLDTFFVKTSLFTER [SEQ ID NO 342] | ≥ 98 % of P28R control | –
47 | KKLDTFFVKVSLFTER [SEQ ID NO 343] | ≥ 98 % of P28R control | –
48 | KKLDTFFVKYSLFTER [SEQ ID NO 344] | ≥ 98 % of P28R control | –
49 | KKLDTFFVKLHLFTER [SEQ ID NO 345] | ≥ 98 % of P28R control | –
50 | KKLDTFFVKLMLFTER [SEQ ID NO 346] | ≥ 98 % of P28R control | –
51 | KKLDTFFVKLNLFTER [SEQ ID NO 347] | ≥ 98 % of P28R control | –
52 | KKLDTFFVKLQLFTER [SEQ ID NO 348] | ≥ 98 % of P28R control | –
53 | KKLDTFFVKLTLFTER [SEQ ID NO 349] | ≥ 98 % of P28R control | –
54 | KKLDTFFVKLSAFTER [SEQ ID NO 350] | ≥ 98 % of P28R control | –
55 | KKLDTFFVKLSHFTER [SEQ ID NO 351] | ≥ 98 % of P28R control | –
56 | KKLDTFFVKLSIFTER [SEQ ID NO 352] | ≥ 98 % of P28R control | –
57 | KKLDTFFVKLSMFTER [SEQ ID NO 353] | ≥ 98 % of P28R control | –
58 | KKLDTFFVKLSNFTER [SEQ ID NO 354] | ≥ 98 % of P28R control | –
59 | KKLDTFFVKLSQFTER [SEQ ID NO 355] | ≥ 98 % of P28R control | –
60 | KKLDTFFVKLSRFTER [SEQ ID NO 356] | ≥ 98 % of P28R control | –
61 | KKLDTFFVKLSSFTER [SEQ ID NO 357] | ≥ 98 % of P28R control | –
62 | KKLDTFFVKLSTFTER [SEQ ID NO 358] | ≥ 98 % of P28R control | –
63 | KKLDTFFVKLSVFTER [SEQ ID NO 359] | ≥ 98 % of P28R control | –
64 | KKLDTFFVKLSWFTER [SEQ ID NO 360] | ≥ 98 % of P28R control | –

— US20170298096A1 (CANIMGUIDE THERAPEUTICS, published 2017)
